Results from patent publication US20160068605A1 (Janssen / Centocor, published 2016).
Substitutions are numbered along the chain they refer to. Names and notes keep the numbering of the source. Values joined by “and” are separate entries in the source; they are usually repeats but may differ in a detail not shown here. Equal values may be shown once.

B1: I3RB5 (antibody, IgG1, V domains shown)
VH: EVQLLESGGGLVQPGGSLRLSCAASGFTFSGYWMSWVRQAPGKGLEWVSGINYDGGSTYYADSVKGRFTISRDNSKNTLYLQMNSLRAEDTAVYYCAKDHFLAEFDYWGQGTLVTVSS
VL: not shown
notes: IgG1; also called I3RB05
B2: I3RB33 (antibody, IgG1, V domains shown)
VH: QVQLVQSGAEVKKPGSSVKVSCKASGGTFSSYGISWVRQAPGQGLEWMGGIIPIFGTANYAQKFQGRVTITADESTSTAYMELSSLRSEDTAVYYCARGYWHWNYDYLDYWGQGTLVTVSS
VL: EIVLTQSPATLSLSPGERATLSCRASQSVNDWLAWYQQKPGQAPRLLIYGASNRATGIPARFSGSGSGTDFTLTISSLEPEDFAVYYCQQYKRAPYTFGQGTKVEIK
notes: IgG1
B3: I3RB30 (antibody, IgG1, V domains shown)
VH: QVQLVQSGAEVKKPGSSVKVSCKASGGTFSSYAISWVRQAPGQGLEWMGWIIPIFGTANYAQKFQGRVTITADESTSTAYMELSSLRSEDTAVYYCARLVYSSDFDYWGQGTLVTVSS
VL: B2 VL with N30A, D31N, G50Y, K92D, R93G, A94W, Y96R
notes: IgG1; also called 13RB30
B4: I3RB40 (antibody, IgG1, V domains shown)
VH: QVQLVQSGAEVKKPGSSVKVSCKASGGTFSSYAISWVRQAPGQGLEWMGGIIPIFGTANYAQKFQGRVTITADESTSTAYMELSSLRSEDTAVYYCARGQWWADTWFDYWGQGTLVTVSS
VL: B2 VL with N30A, D31K, K92H, R93T, Y96W
notes: IgG1
B5: I3RB36 (antibody, IgG1, V domains shown)
VH: B2 VH with G99D, Y100L, W101H, H102V, N104A, D106S, Y107N, L108F
VL: not shown
notes: IgG1
B6: I3RB20 (antibody, IgG1, V domains shown)
VH: B2 VH with G33A, G99D, Y100D, W101Q, H102I, N104G, Y105S, D106Y, Y107H
VL: not shown
notes: IgG1
B7: I3RB19 (antibody, IgG1, V domains shown)
VH: EVQLLESGGGLVQPGGSLRLSCAASGFTFSNYAMSWVRQAPGKGLEWVSGIRGNGSSTYYADSVKGRFTISRDNSKNTLYLQMNSLRAEDTAVYYCAKGGPIGARFPDYLDYWGQGTLVTVSS
VL: DIQMTQSPSSLSASVGDRVTITCRASQSIGDFLNWYQQKPGKAPKLLIYYASSLQSGVPSRFSGSGSGTDFTLTISSLQPEDFATYYCQQSYSTPLTFGQGTKVEIK
notes: IgG1; also called 13RB19
B8: I3RB16 (antibody, IgG1, V domains shown)
VH: B4 VH with Q100A, W101V, A103G, T105Q
VL: not shown
notes: IgG1
B9: I3RB1 (antibody, IgG1, V domains shown)
VH: EVQLLESGGGLVQPGGSLRLSCAASGFTFSDYGMSWVRQAPGKGLEWVSVIRGGGSSKYYADSVKGRFTISRDNSKNTLYLQMNSLRAEDTAVYYCAKHSGSFRFNELDYWGQGTLVTVSS
VL: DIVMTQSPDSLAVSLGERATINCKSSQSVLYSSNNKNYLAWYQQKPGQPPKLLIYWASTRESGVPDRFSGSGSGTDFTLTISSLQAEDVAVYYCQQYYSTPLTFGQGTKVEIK
notes: IgG1; also called I3RB01
B10: CD123 null 2 (bispecific antibody, human IgG4 S228P, lambda, F234A L235A)
heavy: EVQLLESGGGLVQPGGSLRLSCAASGFTFNTYAMNWVRQAPGKGLEWVARIRSKYNNYATYYADSVKGRFTISRDNSKNTLYLQMNSLRAEDTAVYYCVKHGNFGNSYVSWFAYWGQGTLVTVSSASTKGPSVFPLAPCSRSTSESTAALGCLVKDYFPEPVTVSWNSGALTSGVHTFPAVLQSSGLYSLSSVVTVPSSSLGTKTYTCNVDHKPSNTKVDKRVESKYGPPCPPCPAPEAAGGPSVFLFPPKPKDTLMISRTPEVTCVVVDVSQEDPEVQFNWYVDGVEVHNAKTKPREEQFNSTYRVVSVLTVLHQDWLNGKEYKCKVSNKGLPSSIEKTISKAKGQPREPQVYTLPPSQEEMTKNQVSLTCLVKGFYPSDIAVEWESNGQPENNYKTTPPVLDSDGSFLLYSKLTVDKSRWQEGNVFSCSVMHEALHNHYTQKSLSLSLGK
light: QAVVTQEPSLTVSPGGTVTLTCRSSTGAVTTSNYANWVQQKPGQAPRGLIGGTNKRAPGTPARFSGSLLGGKAALTLSGAQPEDEAEYYCALWYSNLWVFGGGTKLTVLGQPKAAPSVTLFPPSSEELQANKATLVCLISDFYPGAVTVAWKADSSPVKAGVETTTPSKQSNNKYAASSYLSLTPEQWKSHRSYSCQVTHEGSTVEKTVAPTECS
VH: not shown
VL: not shown
notes: also called B21M IgG4 x CD3B217
B11: CD123 null 3 (bispecific antibody, human IgG4 S228P, lambda, F234A L235A)
heavy: B10 heavy
light: B10 light with A2T, A80V
VH: not shown
VL: not shown
notes: also called B21M IgG4 x CD3B218
B12: CD123 null 1 (bispecific antibody, human IgG4 S228P, lambda, F234A L235A)
heavy: B10 heavy with L5V, D64A, N76D, T80S, R89K, A90T, V99A, K100R
light: B10 light with A2T, A80V
VH: not shown
VL: not shown
notes: also called B21M IgG4 x CD3B219
B13: CD3B146 (antibody, IgG1, V domains shown)
VH: EVQLVESGGGLVQPGGSLRLSCAASGFTFNTYAMNWVRQAPGKGLEWVARIRSKYNNYATYYAASVKGRFTISRDDSKNSLYLQMNSLKTEDTAVYYCARHGNFGNSYVSWFAYWGQGTLVTVSS
VL: QTVVTQEPSLTVSPGGTVTLTCRSSTGAVTTSNYANWVQQKPGQAPRGLIGGTNKRAPGTPARFSGSLLGGKAALTLSGVQPEDEAEYYCALWYSNLWVFGGGTKLTVL
notes: IgG1 constant region with L234A, L235A, F405L; human lambda constant region; also called CD3B146 hu IgG1-AlaAla F405L

What follows are binders tested against T1, Recombinant human CD123 SP1 ECD-His tag protein (human, UniProt P26951 20-305) (assay: SPR ProteOn, captured mAb).
T1 construct: bought from R&D Systems (#301-R3/CF); biotinylated for some assays; also called rhCD123 SP1; huCD123 ECD SP1
T1 sequence: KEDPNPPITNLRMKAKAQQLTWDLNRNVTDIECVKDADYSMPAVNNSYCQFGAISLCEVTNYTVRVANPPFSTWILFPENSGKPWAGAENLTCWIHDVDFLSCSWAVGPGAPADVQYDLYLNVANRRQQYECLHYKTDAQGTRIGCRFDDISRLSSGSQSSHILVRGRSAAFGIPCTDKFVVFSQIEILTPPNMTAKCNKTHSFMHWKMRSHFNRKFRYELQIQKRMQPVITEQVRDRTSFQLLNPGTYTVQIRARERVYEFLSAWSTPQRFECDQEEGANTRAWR
Procedure: (§1) The biosensor surface was prepared by covalently coupling Goat anti-Human IgG (Fc) to the surface of a GLC chip (BioRad) using the manufacturer instructions for amine-coupling chemistry. […] The RU immobilized also included a goat anti-mouse Fc antibody that was added to capture other antibodies not included in the ones reported here. Since the mixture was 1:1 about 50% of these RU immobilized are expected to be goat anti-human Fc. The kinetic experiments were performed at 25° C. in running buffer (PBS pH 7.4, 0.005% P20, 3 mM EDTA). […] The reference spots (Goat anti-Human IgG (Fc)-modified surface) containing no candidate captured were used as a reference surface. Capture of mAb was followed by 3 min injection (association phase) of antigen at 40 μL/min, followed by 10 min of buffer flow (dissociation phase). […] Data was processed on the instrument software. Double reference subtraction of the data was performed by subtracting the curves generated by buffer injection from the reference-subtracted curves for analyte injections. Kinetic analysis of the data was performed using 1:1 Langmuir binding model with group fit. The result for each mAb was reported in the format of Kₐ (kon or on-rate), Kd (koff or off-rate), KD (Equilibrium dissociation constant) (Table 5).

Binder | Kd | koff | kon
B1 | 12.8 nM and 12.9 nM |  | 
B2 | 4.23 nM | 0.00177 s⁻¹ | 417000 M⁻¹ s⁻¹
B3 | 4.17 nM | 0.00302 s⁻¹ | 725000 M⁻¹ s⁻¹
B4 | 6.02 nM | 0.00346 s⁻¹ | 574000 M⁻¹ s⁻¹
B5 | 2.47 nM | 0.00166 s⁻¹ | 675000 M⁻¹ s⁻¹
B6 | 1.68 nM | 0.00106 s⁻¹ | 631000 M⁻¹ s⁻¹
B7 | 119 nM | 0.0251 s⁻¹ | 211000 M⁻¹ s⁻¹

What follows are binders tested against T2, Recombinant human CD123 SP2 ECD protein (human, UniProt P26951 101-303) (assay: SPR ProteOn, captured mAb).
T2 construct: also called rhCD123 SP2; CD123 ECD SP2
T2 sequence: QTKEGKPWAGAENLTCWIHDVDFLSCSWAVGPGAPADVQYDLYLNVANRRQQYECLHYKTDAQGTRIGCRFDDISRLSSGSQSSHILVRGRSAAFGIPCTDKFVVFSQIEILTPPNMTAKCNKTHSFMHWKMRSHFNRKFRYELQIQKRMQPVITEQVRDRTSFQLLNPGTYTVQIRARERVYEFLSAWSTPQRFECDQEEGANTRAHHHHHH
Procedure: as §1

Binder | Kd | binding result | koff | kon
B1 | 4.88 nM and 4.09 nM |  |  | 
B2 |  | no binding (tested: 400 nM) |  | 
B3 | 330 nM |  | 0.048 s⁻¹ | 145000 M⁻¹ s⁻¹
B4 |  | no binding (tested: 400 nM) |  | 
B5 |  | no binding (tested: 400 nM) |  | 
B7 | 48.3 nM |  | 0.0161 s⁻¹ | 334000 M⁻¹ s⁻¹

Target: T3, cyno CD123 ECD displayed on pDisplay-transfected cells (cynomolgus monkey)
T3 construct: ECD anchored on the surface of stably transfected HEK293 cells; also called cynoCD123 SP1 cells; cynoCD123 cells
T3 chain: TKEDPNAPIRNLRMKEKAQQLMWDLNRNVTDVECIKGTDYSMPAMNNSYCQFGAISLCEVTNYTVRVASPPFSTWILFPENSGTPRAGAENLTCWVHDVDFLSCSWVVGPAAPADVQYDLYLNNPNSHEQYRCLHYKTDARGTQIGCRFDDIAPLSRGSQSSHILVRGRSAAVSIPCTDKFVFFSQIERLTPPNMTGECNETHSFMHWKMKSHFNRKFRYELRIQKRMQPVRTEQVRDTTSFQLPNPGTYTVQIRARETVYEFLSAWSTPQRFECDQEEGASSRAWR
Assay: MSD cell binding on 293F pDisplay cells; fold change over background; parental 293F cells as control
Procedure: The object of the screening assay was to identify antibodies that bound to cells expressing hCD123 SP1 and SP2 as well as cross reactivity with cells expressing cynoCD123 SP1.
Cells were immobilized and phages were assayed in triplicate. […] 5000 cells per well were plated into a 384 well plate (MA6000, cat. L21XB, MSD) and allowed to adhere for 2 hr. Cells were then blocked with 20% FBS in PBS (Gibco) for 15 mins. Antibody supernatants were then added and left at RT for 1 hr. Cells were washed 3 times with PBS and a ruthenium labeled secondary antibody (Jackson Immuno Research) was then added at 1 μg/mL and incubated for 1 hr at room temperature. A further washing step was then applied and 35 μL per well of MSD Read buffer T (surfactant free) was then added and incubated for 30 min for detection. Plates were then read using Sector Imager 2400 (MSD). Data was normalized to controls and graphed using GraphPad Prism Version 5. A positive binder was determined to be a hit with a signal 3× greater than background (FIGS. 2A, B and C).

Binder | binding result
B2 | binds
B3 | no binding (tested: 10 µg/mL)
B4 | no binding (tested: 10 µg/mL)
B7 | no binding (tested: 10 µg/mL)
B8 | no binding (tested: 10 µg/mL)
B9 | no binding (tested: 10 µg/mL)

Each binder was assayed against T4, cell-surface CD3 epsilon on primary cynomolgus T cells (cynomolgus monkey, UniProt Q95LI5 22-198) (assay: flow cytometry competition with labeled CD3B146 on T cells).
T4 construct: whole, on cells; also called cynomolgus CD3e; Cyno T-cells
Text: (§2) The format involved competition binding using a fixed concentration of labeled anti-CD3 mAb of known affinity and increasing concentrations of unlabeled test Abs (Ashkenazi A et al. PNAS: 88:10535, 1991.).

T4 sequence (Q95LI5 22-198): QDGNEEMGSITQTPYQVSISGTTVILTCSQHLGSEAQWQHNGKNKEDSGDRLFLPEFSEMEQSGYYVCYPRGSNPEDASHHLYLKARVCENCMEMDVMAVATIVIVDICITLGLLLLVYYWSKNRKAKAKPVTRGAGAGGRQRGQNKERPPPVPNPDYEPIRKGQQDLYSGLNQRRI

Binder | Kd
B10 | 217 nM
B11 | 237 nM
B12 | 13.4 nM
B13 | 1.1 nM

These binders were tested against T5, cell-surface CD3 epsilon on primary human T cells (human, UniProt P07766 23-207) in the same assay as above.
T5 construct: whole, on cells; part of the CD3/TCR complex on the cells
Text: as §2

T5 sequence (P07766 23-207): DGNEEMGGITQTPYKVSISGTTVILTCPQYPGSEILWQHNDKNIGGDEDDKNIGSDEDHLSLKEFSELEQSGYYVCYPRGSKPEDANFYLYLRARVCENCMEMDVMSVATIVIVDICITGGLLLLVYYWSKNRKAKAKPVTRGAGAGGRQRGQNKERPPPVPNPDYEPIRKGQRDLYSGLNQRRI

Binder | Kd
B10 | 266 nM
B11 | 200 nM
B12 | 13.2 nM
B13 | 3.2 nM
